Target: exenatide (Gila monster) (UniProt P26349)
Sequence (P26349 48-86): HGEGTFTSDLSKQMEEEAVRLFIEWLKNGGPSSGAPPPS

Substance: pepsin (enzyme)
- Residual content of exenatide in percent (%): 0%

— patent US20240156915A1
